Results on three molecules are retold here after patent US20100119478A1 (PROBIODRUG, published 2010).

The labels stand for the following.
T1: 16 LAQDALNVPST
T1 construct: member of group m23; also called PepSpot spot 16
T1 peptide: LAQDALNVPST

T2: 09 DAVNAPL
T2 construct: member of group m23; also called PepSpot spot 09
T2 peptide: DAVNAPL

T3: 11 EKLTGPDKAVT
T3 construct: member of group m23; also called PepSpot spot 11
T3 peptide: EKLTGPDKAVT

T4: 07 AQPDAVNAPL
T4 construct: member of group m23; also called PepSpot spot 07
T4 peptide: AQPDAVNAPL

B1: monoclonal antibody 348-2C9 (antibody, V domains shown)
VH: EVQLQQSGPELVKPGASVKMSCKASGYTFTDYYMDWVKQSHGESFECIGRVNPYNGGTSYNQKFKGKATLTVDKSSSTAYMELNSLTSEDSAVYYCARLGSSYRWGQGTTLTVSS
VL: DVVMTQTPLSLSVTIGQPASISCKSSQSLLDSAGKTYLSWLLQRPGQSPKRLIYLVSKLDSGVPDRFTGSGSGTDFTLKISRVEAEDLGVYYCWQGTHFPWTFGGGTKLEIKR
notes: Mouse IgG2b from hybridoma, Protein-G purified; also called Clone 2C9; DSM ACC 2906
B2: monoclonal antibody 348-1D4 (antibody, V domains shown)
VH: B1 VH
VL: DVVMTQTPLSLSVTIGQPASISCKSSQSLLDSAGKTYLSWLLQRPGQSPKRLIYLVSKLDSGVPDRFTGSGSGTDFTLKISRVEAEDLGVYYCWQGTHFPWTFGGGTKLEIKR
notes: Mouse IgG2b from hybridoma, Protein-G purified; also called Clone 1D4; DSM ACC 2905
B3: monoclonal antibody 332-4B8 (antibody, V domains shown)
VH: EVQLQQSGPELEKPGASVKISCKASGYSFTGYNMNWVKQNNGKSLEWIGNITPYYGSTSYNQKFKGRVTLTVDKSSSTAYMQLKSLTSEDSAVYFCLLWLRRGDYAMDYWGQGTSVTVSS
VL: DVLMTQTPLSLPVSLGDQASISCKSSQSIVHSNGNTYLEWYLQKPGQSPKLLIYKVFNRFSGVPDRFSGSGSGTDFTLKISRVEAEDLGVYYCFQGSHVPYTFGGGTKLEIKR
notes: Mouse IgG1 from hybridoma, Protein-G purified; also called Clone 4B8; 322-4B8

One assay deals with T1, 16 LAQDALNVPST
Kind of assay: PepSpot membrane, peptide 1 µg/spot, antibody 1 µg/ml, AP-conjugated anti-mouse detection. The protocol:
(§1) Corresponding PepSpot membranes were prepared by JPT Peptide Technologies GmbH, Berlin (JPT). On these membranes, peptides with the indicated amino acid sequences (see FIG. 3; Z represents pE) were immobilized at a concentration of 1 μg/spot.
(§2) For analysis, membranes were blocked for two hours with TBST-M (=TBST+5% skimmed milk) at room temperature with gentle shaking. Membranes were incubated over night at 4° C. on a rocking platform with the individual MCP-1 N1pE antibody clones diluted to 1 μg/ml in equal volumes of TBST-M. Secondary anti-mouse antibody conjugated with alkaline phosphatase was used for signal detection, following standard procedures.
Consider B1, for which the binding result is “no binding (tested: 1 µg peptide per spot)”.
The same measure, in the same setting: under B2 stands “no binding (tested: 1 µg peptide per spot)”.
Still for that read-out and setting: under B3 stands “no binding (tested: 1 µg peptide per spot)”.

The target of another assay is T2, 09 DAVNAPL. The assay is described as above. The procedure:
as §1, §2
Consider B1, for which the binding result is “no binding (tested: 1 µg peptide per spot)”.
Turning to B2, the binding result is “no binding (tested: 1 µg peptide per spot)”.
With B3, the binding result was “no binding (tested: 1 µg peptide per spot)”.

A further assay concerns the target T3, 11 EKLTGPDKAVT
The assay is described as above. The protocol: as §1, §2
For B1, the binding result is “no binding (tested: 1 µg peptide per spot)”.
Still for that read-out and setting: in the case of B2 it was “no binding (tested: 1 µg peptide per spot)”; in that of B3, “no binding (tested: 1 µg peptide per spot)”.

Another assay has as its target T4, 07 AQPDAVNAPL
The assay is described as above. The procedure: as §1, §2
In the case of B1, the binding result is on record as “no binding (tested: 1 µg peptide per spot)”.
B2: the binding result is on record as “no binding (tested: 1 µg peptide per spot)”.
In the case of B3, the binding result was “no binding (tested: 1 µg peptide per spot)”.
